Reference: patent US20140335539A1

Key:
[1] = molecular target: p62(PB1)-p53; assay: cell-based or functional assay
[2] = molecular target: p62(PB1)-FKBP12; assay: cell-based or functional assay

## AG-MDM2
[1]
  IC50 of Nutlin-3, total luminance of fluorescent foci per cell (stable CHO-K1 line): 8.9 µM

## mTOR(FRB)-AG
[2]
  IC50 of FK506 in the presence of 20 nM rapamycin, total fluorescence intensity of fluorescent foci per cell (stable HeLaS3 line): 0.68 µM
